Assay: label from the status in PepcDB records
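Further: failed if final PepcDB status was selected cloned or expressed and not failed if soluble or beyond.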

Row | Sequence | protein production
1 | MSLIVSTIASHSSLQILLGAKKEGFKTRLYVSPKRRPFYSSLPIVDDLVVAEEMTSILNDDGIVVPHGSFVAYLGIEAIEKAKARFFGNRRFLKWETTFELQDKALEGAGIPRVEVVEPEDAKPDELYFVRIEGPRGGSGHFIVEGSELEERLSTLEEPYRVERFIPGVYLYVHFFYSPILERLELLGVDERVLIADGNARWPVKPLPYTIVGNRAIALRESLLPQLYDYGLAFVRTMRELEPPGVIGPFALHFAYDGSFKAIGIASRIDGGSNADHWYSELYWGERLSMGRRIARELRLAEEEDRLEEVVTEGHHHHHH | not failed
2 | MQNIAVHEASTLMRYISNAIGSIRDPQELFRTVTDKLRLVFEFDSAFIITLDRDRRFINVVFEMVRFDLPDTIQRKKRPVAGSWIESHLGDEGVSVVAIEGEMDRYPADFPVPRMLYDLGMRQVVLSPLRSGGKVIGFLNFVSREQKQWKESDKELLSTLSSPVAVALSSALAYEELRQREA | failed
3 | MAAIVLTRNLQLAKHHGSGVVGVLCLRGYSAAAAPPEDGPRPLKTTNPAAMKRGTGGRSSFNGIVATVFGATGFVGRYVCNKLGKSGTQMILPYRGDDSDVIRLKVTGDLGQVLFHFYNLEDPASIRDAVKHSNVVINLVGRDFETKNFKFKDVHVNGAERIARIAREAGVERLIHLSSLNVEANPKDLYVKGGSEWLKSKYEGELRVRDAFPNATIIRPADIYGSEDRFLRYYAHIWRRQFRSMPLWHKGEKTVKQPVYVSDVAQAIINAAKDPDSAGRIYQAVGPKRYQLSELVDWFHRLMRKDQKRWGYMRYDMRWDPTFLLKAKLNSFICPGTPIGGLHPARIEREAVTDKVLTGVPTLEDLGVTLTTMEQQVPWELRPYRAALYYDAELGEFETPSPPKCIEARDELRLFA | failed
4 | MSVFTPLARPELETFLAPYGLGRLLDYQGIAAGSENTNYFISLEQGEFVLTLVERGPVQEMPFFIELLDVLHDANLPVPYALRTTDGQALRELAGKPALLQPRLPGKHISEPNTQHCVQIGELLANLHLATREQVLERKTDRGLDWMLSEGRNFLSHLGETQRALLEKSLQEIEDLKPQIMALPRANLHADLFRDNVLFEGTHLTGLIDFYNACSGPMLYDLAIALNDWCSRENGQLDAVRARALLGAYAGLRPFTAAESKLWATMLRIACVRFWLSRLIAAETFAGQDVLIHDPVEFEQRLAERQTPHIALPFAL | not failed
5 | APIKGVTFGEDTVWEVQGYKNVRITFELDERVDKVLNEKCSVYTVESGTEVTEFACVVAEAVVKTLQPVSDLLTNMGIDLDEWSVATFYLFDDAGEENFSSRMYCSFYPPDE | not failed
6 | MEIVFLGGAKEVGASCVLIKAGGKNILLDSGIRMKEDKLPNLQLLRELGGADVCLISHAHLDHIGSLPLIAREYPHIFFYTNQPTKDLIKVLLYDSLKIMDAKEDEIPIYAEKNVEDLLDRTITYGFNYTFEPLEGIKVTFFPAGHILGASMIFIQTQEGSVLYTGDFSTDKQLTVDKASIPKIRPDVVICESTYGDRLHTNRNYEEERLFNSIYEFISKGGKVLIPAFAIGRAQEIILILRNYMKKKKVEFNVFIDGMVREVIRVYKNNPTFLSSRYYKKVLKGEEIFLSDNIDIITDKKQREEIMSSSDPCVIISSSGMLTGGPSVFYAEKLVENQNALIAITGYQDEESPGRKLLELTELPESERKIELNGKEYEVKCKVEKYGLSAHADRDSILGFLAMLKPKTVVFAHGSEEAISQLSDMAIKEIESAVLIPQNGEMNTISIEKPRRQLSFFNVKKLSNIEPLNEENIKSLWEYLLESKQEANHITAEHAILIWNGKQFLERDEVNRVFELLKSSPYFEQNPRKPYLFRILSRTEVENKLKPKPMEQNKMRELAFEMFKDFGLYKVGMDNENVVVTFYFNFPHIANRLEDKIKEFEEKTLWKVEVNPNINLTYAQKYLQKLLEDEGVKLLKFSYNPVINAIVVKPNKEFDSMKELCSKFLDETGIELIFDIENKEDCTARLQNKDRMEQNKALLLIDLYFENEKDKVYKKSIKEGGKYIELSFVTPFVAEKYKDKLNELSQKTGWEIRISQTINQVEMVNILKDILAKYNIDLIKNPSIYPSIREVRIKLAGEIDSNIVNEIANEFYDRTGFYLKI | failed
7 | MYNREGIQGHILSFIDFSKASTFLDIGCGKGNDLIEISNRTCKEAKLYGVDVKANLIEFAKMQTEGDCRFTFNVYDVEDGLKFEDESIDVIISCNVLECIKNKSKLLHEIHRVLKPDGKIIMAHFDWDTQIFNAFDKNLYRKLIHTYSDWQQPWMNDCDAWMGRRISGVFNETGLFSGNIFTYVVTESEYKEGFRGYSLINEEFKALVEKGIIKNTEFELFKDQIIQLEKTGHYFYSVNLYTYVGQKK | failed
8 | MAEDFSVVVLASDLGIDARPFLTRSDDVDEQENWHDCPQYLGDEDFSDLDLLQFFTLQGLDRSGNRIFRIVGKYFPARVVSAERLKKYISQKISNQCPEGPLCLVYMHSTVQKDDNSPGITILRWIYEDLPSDIKDRLQLVYFIHPGLRSRLVIATLGRLLLSGGLYWKIKYVSRLQYLWEDIKKGEVEIPDFVKNHDNVLEHRPLTDYGIEPDPFQLSEVQSSSFSLNRYENRWVS | failed
9 | KYYWNNVNYDPATLFSASCLLFYVLDAIIFEHHLSSSFELQHEGYGCLLLLRYAATPYLLTAVTKYFYEQRVPISCWYAPLAVAALLSLGLLVKRFSCAYKYKYRLNSQSPIFANIETIHTYQGSRLLLSGMWGWVRQPNYLGDIVALLALAAPMALRPAWPPVLGLSLIILLLLHRATRANARNQARYHSSWQRYSTQVRSYILPRVY | failed
10 | MSRRAGHNGRPLLEVPMLLRGLTWLVLFQLLGTGLNVLLLPMLPGPIIGLVLLFGYFLARGEVGKPVNEAAGSLLRYLPLLLVPAAVGVMAYAREIAADFWAIVGALVLSLLLSFLFAGWMMQKLIDRQQRRREES | failed
11 | MTTMQSRERLVKWLQDAYAMEKEAETMMAAMASRIEHYPELKRRIEQHVEETQQQSAGVQRCLELLNGSIPTAKGMLSSVLASMHAAGNSMMTDEVTKGVGISYAFEHLEIASYRALVVAARSAGEQEVAQICEDILQQEIEMAEWLIEHQEAIVVAFLEREQLEGVTAKR | not failed
12 | MHSVPSTGFPQSEFSGPFWTGRGVACARPNRYVWTARPSDQSSRRMSTSFSRRLRRLQSQKETALCVGLDPVPARFPPSLQDGRLRTDAVRAFCTTIVEATAPYACAFKPNFAFFEALGPAGLTVLDQVVTTIPDDCLVLGDAKRGDIGHSARHYAASIYEELGLDACTVSPYLGRDSVMPFLEHEGTCTFVLARTSNDGAADLQEACTCDGTPLYRHVARRVQAWNADAPGGAGLVVGATAPAALQDLRSLCPSLPFLVPGVGAQGGDAAAVMDAAATDEGPVLVNSSRSILYASEGPNYANAAADAARALRDALNGGASSSRGAPSPPALEHHHHHH | failed
13 | MIKVLDQNTINKIAAGEVIEKPSSVIKELVENSIDSGATAITVEVKGSGLSFLRVTDNGSGIKKDEVKLAFLRHATSKLVTVEDLLSISSLGFRGEALASIASVAQVEMITKTADDVTGLRYQIHGGREISSEEIGAPGGTTIIVRNLFYNTPARKKFMKTDLTEISYIYDLMCRICMSHPKISFKFISNGTDKLFTSGNGKLRDIIYHIYGRDITSNLLEINAENDYMKISGYIARPCISRGNRSFEGYYVNHRYIKSAVLTKAIEDAFRTFVMIHKFPFTEINFQVRPDLLDVNVHPTKMELKFANSQDIYSFTYNAIRETLLFKELIPDVAPGKDSKPETYKQRNVGDAPEAFENKRREALVGPVAQAKAAPTHMVTDNSLVKSENAPVLDQRQMKPERASTSESQARPEGTSTALQQPLKPDNIPAPVRPIIDVIDETKDTNTSAEKKSDNNTYEQPQKSGYSYSGRHQEIPGSKVAESKASYMAVDDRKYVQQNMFQEKFLTKEARAKHRLIGQLFKTYWLIEYDGKFFIMDQHAAHEKVKYEELMENYKNKKIYSQYLMPPAVVTLSATEIEFLHENMETFEALGYQIENFGGREFKLNAVPDNLFGLDGRELFIDFIADASSSAKKVTIDVFIHKLSTMACKAAIKGNTEISFKEADALIDQLLKLENPYTCPHGRPTVISMTEAEIEKKFKRIV | failed
14 | MNKETVLYVVIALLVGILGTVLVVGVVNKQKPAPATAGIPAGGGSPVDYQQRIAEAEKVVANDPKNLQAWIQLGNDYFDTDQAQKAINAYGKALELDPTNANVLTDQGIMFKRVGWFDKAIANFEKAQQLDPKHLQSLYNLGVVYMSDLKQPAKAVKYWERYLELDPMGPNSQQIRTMLEEAKGMAQTPSPQGQLFRK | failed
15 | MSIEMKTQLGTVDVSKDVVATIAGGAAVDCYGIVGMASQKQIKDGLSELLGRENFRRGVVIREEEDEIHIDMYIIVSYGTKISEVAYNVQTKVKYQLETMLGIDVDSVNIFVQGVRVTNPLEHHHHHH | failed
16 | MWLRRKRAPVNGVVTLDRRHLYILPTRGGIGFSVLLATMLLTSLNYAISLGFALTFLLAGIGMGCMWMAYRNLLDLRVSAGPVTPAFVGECAIFTLHVDNQDAAARIGIEARTPLSGADTETAALTLDGVSSGTLPVRLSAIRRGRLVLPRVTLSSRFPFGLFRVWSYADLGLATVVYPAPEASPPPLPRHPQSDDADDGAASFAADDGIDQLRRYRPGDPLHRIAWKHSARTGKWLTRSGHTPQQPSCWIDWNTLPPAMDTEARLSRLCAWVLMAGEVSEIGLRLPGVEITPGRGSAHVRACLEALALWPERRAR | failed
17 | QKNPDSYNGAVRENYTWSQDYTDLEVRVPVPKHVVKGKQVSVALSSSSIRVAMLEENGERVLMEGKLTHKINTESSLWSLEPGKCVLVNLSKVGEYWWNAILEGEEPIDID | not failed
18 | RPNVERDAQRRVNIRVTDEIVTALNERRIVMAFEPVVQAVSRAPAFHECLVRMKQDDGELLLAPDIVPVAEKLGLIRLVDHRVLELVVAELAAAPGVELSLNISPDTTMDADWWASIESLLGANPGVAERLIVEITETVAIQDLDDVRGFVNRLKNFGARIAIDDFGAGYTSFRNLRNLGVDIVKIDGAFVQNIARSADDRAFVQTLIDLARRLEIKTVAEWVQDEASAIMLRDWGCDYIQGRLIGLA | failed
19 | MEIHSERKKRLSLSLLFKIIKDTVWGFIDDSVMRLSASLAYATLFSIIPFLSLLVTVGVFFHMDLANQLYVQLQPIVGPEVTEALRSIIENAENTDSSRSAAFVSLGISILGATTIFAEIQSSLNSIWGIKAVPKKSWLKFIKNRILSFSIILVFAFILLITFTITNIIGELSQKFIFKYPEVADSLVKVVGIIINMSVTTIIFTLIFKILPDAKIKSKDVCIGAVVTTILLLIGQWGISFYIGIANVGTVYGAAAFMVVFVTWIYYSSIIIYTGAEFTKAWANEMGGKIFPDEYAVATKTIEIHEDKPIE | failed
20 | MASVSVSHLILFIASMAIAASVAGVFTSSIGELSNAVSEQGLDVSSDVRTDVEIISDSGSDTIYDSGANTITVHVKNTGSETLAPVPGQVDVFVDGTFASDYTVTLEPNGGNSWRPGEVVRIDINDNLSGGDHRLKLIVNGDEEVFEFNT | failed
21 | MAALAIIQSLNTSSYPIDIQRLKPKKMPEEPGPARNKFRSDFIVEIALIVAVAVYLVMAQGQVVGENLSFTVTGAALMALATYWTLHTIRDGLEVIALRLRPGK | failed
22 | MRHMSGDHAALVLGAGAGRRLGRSKQLLMRDGEPLLRRAARIALLTAPRRCVVVLGADADTLSEVLQDLDIEILRHPDWSEGMGSSLAALRRHVQGDPALRRSLILGCDQPALDAPHLRSLLEEADRAVSGCATSGYSGVRGIPAVVTHTAWADVPLQADSGLRGLFASLDMQSLGCVSAPALALDIDTPADLATAQQRGWVDAELEHHHHHH | failed
23 | MNLTELMERIPHLREILNIVREAFKDYDDPAHDISHTFRVMENASEIASREKCDLQKAIIAALLHDIKRPHEALTGVDHAESGAEYASGLLPTMGFDISFVAEVSKAIRSHRYSGGLTPTSLTGKILQDADRLDAIGAVAIARVFSYSGKTGTPLHSLQFSPRSSYSGNSRSSINHFHEKILKIRPETFWTETARKMAEDRYSFVVEFVQRFLAEWGQI | not failed
